For four variants, response results are on record in publication PMC11638888 (2024).

B1: mCherry-MYO10-SLC26A4-Ct (NanoSPD bait) [mouse] / μ2-MID-EGFP (NanoSPD prey) [mouse] (parent complex)
chain 1: RVQFPSWNGLGSVPSTDIYKSITHYKNLEEPEGVKILRFSSPIFYGNVDGFKKCINSTVGFDAIRVYNKRLKALRRIQKLIKKGQLRATKNGIISDIGSSNNAFEPDEDVEEPEELNIPTKEIEIQVDWNSELPVKVNVPKVPIHSLVLDCGAVSFLDVVGVRSLRMIVKEFQRIDVNVYFALLQDDVLEKMEQCGFFDDNIRKDRFFLTVHDAILHLQNQVKSREGQDSLLETVARIRDCKDPLDLMEAEMNAEELDVQDEAMRRLAS
chain 2: SETGALKTFITQQGIKSQHQTKEEQSQITSQVTGQIGWRREGIKYRRNELFLDVLESVNLLMSPQGQVLSAHVSGRVVMKSYLSGMPECKFGMNDKIVIEKQGKGTADETSKSGKQSIAIDDCTFHQCVRLSKFDSERSISFIPPDGEFELMRYRTTKDIILPFRVIPLVREVGRTKLEVKVVIKSNFKPSLLAQKIEVRIPTPLNTSGVQVICMKGKAKYKASENAIVWKIKRMAGMKESQISAEIELLPTNDKKKWARPPISMNFEVPFAPSGLKVRYLKVFEPKLNYSDHDVIKWVRYIGRSGIYETRC

One test covers variants of B1. Put plainly: NanoSPD assay; HeLa cells; mean of biological replicate means; parent: 2.7e+03; read off a plot.
Consider chain 1 Y19A, chain 1 Y25A, chain 1 Y45A, chain 1 Y180A, for which the response is about 210 A.U.

Take chain 1 Y25A: the response was about 190 A.U.

For chain 1 Y19A, chain 1 Y45A, chain 1 Y180A, the response was about 530 A.U.

The variants in another test derive from B1. Put plainly: NanoSPD assay; HeLa cells; mean of biological replicate means; parent: 1.3e+04; read off a plot.
As to chain 1 L28A, the response is about 2000 A.U.
